In this assay the target is T1, His-tagged Arabidopsis thaliana full-length UVR8 (UV … LOCUS 8) (Arabidopsis thaliana), Q9FN03.
T1 chain: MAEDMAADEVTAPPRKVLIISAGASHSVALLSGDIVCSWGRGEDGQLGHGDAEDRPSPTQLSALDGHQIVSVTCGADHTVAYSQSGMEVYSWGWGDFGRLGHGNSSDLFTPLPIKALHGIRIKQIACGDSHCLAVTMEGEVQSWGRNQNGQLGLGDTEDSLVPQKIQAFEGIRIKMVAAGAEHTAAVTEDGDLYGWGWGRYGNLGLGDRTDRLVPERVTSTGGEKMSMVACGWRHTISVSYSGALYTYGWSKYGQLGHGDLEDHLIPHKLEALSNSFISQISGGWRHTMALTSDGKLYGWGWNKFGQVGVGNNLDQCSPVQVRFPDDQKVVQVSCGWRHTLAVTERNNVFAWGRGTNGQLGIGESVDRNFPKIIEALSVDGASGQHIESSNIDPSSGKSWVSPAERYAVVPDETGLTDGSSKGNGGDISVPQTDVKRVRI
In words: SDS-PAGE without boiling. To be noted: remark: other sources report otherwise.

B1: His-tagged Arabidopsis thaliana full-length UVR8 (UV … LOCUS 8), Q9FN03 1-440 (natural protein)
chain: MAEDMAADEVTAPPRKVLIISAGASHSVALLSGDIVCSWGRGEDGQLGHGDAEDRPSPTQLSALDGHQIVSVTCGADHTVAYSQSGMEVYSWGWGDFGRLGHGNSSDLFTPLPIKALHGIRIKQIACGDSHCLAVTMEGEVQSWGRNQNGQLGLGDTEDSLVPQKIQAFEGIRIKMVAAGAEHTAAVTEDGDLYGWGWGRYGNLGLGDRTDRLVPERVTSTGGEKMSMVACGWRHTISVSYSGALYTYGWSKYGQLGHGDLEDHLIPHKLEALSNSFISQISGGWRHTMALTSDGKLYGWGWNKFGQVGVGNNLDQCSPVQVRFPDDQKVVQVSCGWRHTLAVTERNNVFAWGRGTNGQLGIGESVDRNFPKIIEALSVDGASGQHIESSNIDPSSGKSWVSPAERYAVVPDETGLTDGSSKGNGGDISVPQTDVKRVRI
In general, stoichiometry N refers to a count of units in the complex or per binding partner. B1 yielded a stoichiometry N of 2.
